Patent US20190101529, “TAU PROTEIN-BINDING DNA APTAMERS WITH CAPTURE/DETECTION AND THERAPEUTIC UTILITIES IN TAUOPATHY-RELATED NEURODEGENERATIVE DISORDERS” (UNIVERSITY OF FLORIDA RESEARCH FOUNDATION, INC., published 2019)
Where no end group is shown, it is not given here. [ ]: non-standard residue; d: D form. pT = C[C@@H](OP(=O)(O)O)[C@H](N)C(=O)O

What was measured:
[1] = target: Tau441 (microtubule-associated protein tau, 2N4R) (UniProt P10636-8 P10636-8:1-441); test: BLI; PBS + 5 mM Mg2+, 30 C; details: tags: His-tag (SignalChem) for BLI, rPeptide Tau441 for aggregation assay
Tau441 (microtubule-associated protein tau, 2N4R), sequence (P10636 other isoform, or with tags, fused parts or gaps): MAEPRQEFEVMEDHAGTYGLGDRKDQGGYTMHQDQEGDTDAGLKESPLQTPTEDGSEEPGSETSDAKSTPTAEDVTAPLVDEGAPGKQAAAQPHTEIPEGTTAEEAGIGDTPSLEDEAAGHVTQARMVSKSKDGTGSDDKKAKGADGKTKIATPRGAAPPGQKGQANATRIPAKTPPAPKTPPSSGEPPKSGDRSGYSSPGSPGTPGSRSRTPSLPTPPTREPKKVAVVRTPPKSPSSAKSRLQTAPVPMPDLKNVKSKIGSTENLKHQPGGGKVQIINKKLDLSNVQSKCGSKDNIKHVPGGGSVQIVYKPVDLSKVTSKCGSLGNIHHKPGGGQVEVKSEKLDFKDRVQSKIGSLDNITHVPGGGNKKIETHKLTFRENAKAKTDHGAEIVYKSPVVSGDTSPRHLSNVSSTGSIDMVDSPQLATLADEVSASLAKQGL
Procedure: (§1) The binding affinities and binding kinetics of the selected aptamers were determined on an Octet RED384 instrument (Pall Fortebio). All measurements were performed on 384-well plates that were agitated at 1000 rpm at 30° C. The his-tag peptides were immobilized at a concentration of 5 μg/mL on Ni-NTA sensors for 10 minutes, followed by rinsing the sensors in PBS for 10 min. Then the sensors were brought into fresh association buffer (PBS with 5 mM Mg2+) to establish a baseline for another 10 min. For kinetic analysis, the peptide-immobilized sensors were transferred to the wells containing aptamer dilutions (1 μM, 1.5 μM, 2 μM, 3 μM, 4 μM) for the association step (10 min), and then moved to the wells with fresh buffer for the dissociation step (10 min). A reference sensor was used without the treatment with aptamer solution but others steps remained the same. […] Association rate constants (kon), dissociation rate constants (koff), and equilibrium dissociation constants (Kd) for each aptamer binding to its target peptide were calculated using the FORTEBIO® data analysis software 10.0.

Tau T231 peptide [2] = target: T1, Tau T231 peptide (UniProt P10636); test: flow; no significant background binding; PBS + 5 mM MgCl2, 4 C; details: protein: synthetic; tags: synthetic (GenScript), N-terminal acetyl, C-terminal Ahx-Ahx-His6; label: fluorophore
T1 chain: KVAVVRTPPKSPS
Procedure: (§2) For each sample, 20 μL of peptide-beads or bare beads (˜1.4×105 beads) was washed against 500 μL of PBS three times. After removing the supernatant, beads were suspended in 80 μL of buffer containing either DNA pool or aptamer candidate to be tested at 250 nM for 30 min, but the DNA concentration used was 100 nM instead of 250 nM when examining the saturation of fluorescent signal with the selection pools. Incubations were carried out at 4° C. unless stated otherwise. Afterwards, beads were washed against 500 μL of PBS with additional 5 mM Mg2+ twice and then were suspended in 80 μL of buffer for flow cytometric analysis.
The supernatant collected after the fourth negative incubation then was carried to the 8th round of positive incubation, in which the concentration of the peptide solutions used to modify Ni-NTA beads was doubled to 800 μg/mL. Moving forward, the following selection rounds were conducted with sandwiched negative incubations to eliminate the possibility of enriching any oligonucleotides recognizing the surface of the beads and with positive beads prepared with more concentrated peptide solutions (800 μg/mL) to raise the recovery rate of the desired candidates. The SELEX progress was then evaluated again with amplicons obtained in Round #10 and Round #11. […] Four oligonucleotides were used as reference sequences.

UCH-L1 = UCH-L1 (UniProt P09936 P09936:1-223); test: EMSA; 200 nM aptamer, 0.05 mg/mL protein, 4 C; details: label: 5'-FAM (flow)
UCH-L1, sequence (P09936 whole entry, one chain of several): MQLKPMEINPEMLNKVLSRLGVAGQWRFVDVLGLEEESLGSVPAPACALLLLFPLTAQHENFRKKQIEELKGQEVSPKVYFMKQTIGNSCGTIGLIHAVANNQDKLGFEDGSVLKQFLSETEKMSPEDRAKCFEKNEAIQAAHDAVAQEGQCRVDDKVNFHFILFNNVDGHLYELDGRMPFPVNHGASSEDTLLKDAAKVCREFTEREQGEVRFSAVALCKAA

BSA = BSA (UniProt P02769 P02769:25-607); test: EMSA; 200 nM aptamer, 0.05 mg/mL protein, 4 C; details: label: 5'-FAM (flow)
BSA, sequence (P02769 25-607, one chain of several): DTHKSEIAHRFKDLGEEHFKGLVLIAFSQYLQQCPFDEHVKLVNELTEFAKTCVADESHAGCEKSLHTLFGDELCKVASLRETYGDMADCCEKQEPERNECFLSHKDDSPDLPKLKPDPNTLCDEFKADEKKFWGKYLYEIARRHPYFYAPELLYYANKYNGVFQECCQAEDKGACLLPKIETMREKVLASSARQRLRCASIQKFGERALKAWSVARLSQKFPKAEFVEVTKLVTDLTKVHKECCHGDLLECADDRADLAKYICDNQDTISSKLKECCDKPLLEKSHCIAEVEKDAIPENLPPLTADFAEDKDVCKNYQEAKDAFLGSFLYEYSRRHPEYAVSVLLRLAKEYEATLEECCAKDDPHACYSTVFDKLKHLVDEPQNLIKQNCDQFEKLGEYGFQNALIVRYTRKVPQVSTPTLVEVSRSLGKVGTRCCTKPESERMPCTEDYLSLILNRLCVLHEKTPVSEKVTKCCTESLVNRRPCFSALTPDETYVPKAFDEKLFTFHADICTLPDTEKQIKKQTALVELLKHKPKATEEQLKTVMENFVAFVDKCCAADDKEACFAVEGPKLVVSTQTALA

alpha casein = target: T2, alpha casein (UniProt P02662 P02662:16-214); test: EMSA; 200 nM aptamer, 0.05 mg/mL protein, 4 C; details: label: 5'-FAM (flow)
T2 sequence: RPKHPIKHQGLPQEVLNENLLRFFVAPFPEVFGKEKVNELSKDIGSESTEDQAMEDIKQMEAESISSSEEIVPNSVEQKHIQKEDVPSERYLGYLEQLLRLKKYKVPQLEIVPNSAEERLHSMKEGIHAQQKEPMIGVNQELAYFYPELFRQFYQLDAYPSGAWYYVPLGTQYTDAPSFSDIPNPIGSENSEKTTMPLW

beta casein = target: T3, beta casein (UniProt P02666 P02666:16-224); test: EMSA; 200 nM aptamer, 0.05 mg/mL protein, 4 C; details: label: 5'-FAM (flow)
T3 sequence: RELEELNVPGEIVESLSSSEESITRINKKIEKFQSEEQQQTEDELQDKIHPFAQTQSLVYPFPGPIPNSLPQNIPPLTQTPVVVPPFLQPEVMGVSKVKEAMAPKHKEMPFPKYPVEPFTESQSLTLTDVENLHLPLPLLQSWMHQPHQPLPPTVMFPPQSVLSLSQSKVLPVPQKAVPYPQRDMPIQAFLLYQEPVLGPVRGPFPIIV

Tau T231P phosphopeptide = target: T4, Tau T231P phosphopeptide (UniProt P10636); test: flow; binding lost completely; 4 C; details: protein: synthetic
T4 chain: KVAVVR[pT]PPKSPS
Procedure: as §2, with “BD ACCURI™ C6 flow cytometry (BD Immunocytometry Systems) was used to monitor the enrichment of aptamer candidates during the selection process and to evaluate the binding specificity of the selected aptamer candidates. For” for “For”

Tau T231 peptide [3] = target: T1, Tau T231 peptide; test: flow; binding lost completely; 4 C; details: protein: synthetic; tags: synthetic peptide (GenScript), N-terminal acetyl, C-terminal (Ahx)2-His6
Procedure: as §2, with “BD ACCURI™ C6 flow cytometry (BD Immunocytometry Systems) was used to monitor the enrichment of aptamer candidates during the selection process and to evaluate the binding specificity of the selected aptamer candidates. For” for “For”

Tau S202 peptide = target: T5, Tau S202 peptide; test: flow; binding lost completely; 4 C; details: protein: synthetic; tags: synthetic peptide (GenScript), N-terminal acetyl, C-terminal (Ahx)2-His6
T5 chain: GYSSPGSPGTPGSR
Procedure: as §2, with “BD ACCURI™ C6 flow cytometry (BD Immunocytometry Systems) was used to monitor the enrichment of aptamer candidates during the selection process and to evaluate the binding specificity of the selected aptamer candidates. For” for “For”

Tau T231 peptide [4] = target: T1, Tau T231 peptide; test: BLI; PBS + 5 mM Mg2+, 30 C; details: protein: synthetic; tags: synthetic peptide (GenScript), N-terminal acetyl, C-terminal (Ahx)2-His6
Procedure: as §1

Tau T231 peptide [5] = target: T1, Tau T231 peptide; test: flow; binding lost; 4 C; details: protein: synthetic; tags: synthetic peptide (GenScript), N-terminal acetyl, C-terminal (Ahx)2-His6
Procedure: as §2, with “BD ACCURI™ C6 flow cytometry (BD Immunocytometry Systems) was used to monitor the enrichment of aptamer candidates during the selection process and to evaluate the binding specificity of the selected aptamer candidates. For” for “For”

B1: IT1 (ssDNA)
DNA: CAGCACCGTCAACTGAATTGCTTGGTCCTCCCGGGGTTCTGGAAAAGCGTGATGCGATGGAGATGT
[1]; label: 5'-FAM (flow)
  Kd: 9 nM

B2: IT6 (ssDNA)
DNA: CAGCACCGTCAACTGAATGTTGTCGTCAGAGGTTATAACCTGAACTCGGTGATGCGATGGAGATGT
[1]; label: 5'-FAM (flow), branched hairpin (predicted)
  Kd: 26.8 nM

## GCGGAGCGTGGCAGG (ssDNA) [Ref1]
Tau T231 peptide [2]
  binding result: no binding

B3: IT5 (ssDNA)
DNA: CAGCACCGTCAACTGAATGGCGGGGGGTCAGGTCGGGGTAAGGTGAGCGTGATGCGATGGAGATGT
[1]; label: 5'-FAM (flow)
  Kd: 7.6 nM
UCH-L1
  binding result: no binding
BSA
  binding result: no binding
Alpha casein
  binding result: no binding
Beta casein
  binding result: no binding

B4: IT9 (ssDNA)
DNA: CAGCACCGTCAACTGAATTGCGGGGGGTCAGGTCGGGGTAAGGTGAGCGTGATGCGATGGAGATGT
[1]; label: 5'-FAM (flow)
  Kd: 22.8 nM
UCH-L1
  binding result: no binding
BSA
  binding result: no binding
Alpha casein
  binding result: no binding
Beta casein
  binding result: no binding

## AAGGACTGCTTAGGATTGC (ssDNA) [IT2b]
Tau T231P phosphopeptide
  binding result: no binding
Tau T231 peptide [3]
  binding result: no binding
Tau S202 peptide
  binding result: no binding

## GCTTGGTCCTCCCGGGGTTCTGGAAAAGC (ssDNA) [IT1c]
Tau T231 peptide [4]
  Kd: 46 nM
[1]
  Kd: 13 nM

## TTGGTCCTCCCGGGGTTCTGGAAAA (ssDNA) [IT1d]
Tau T231 peptide [5]
  binding result: no binding

## AACGAGAAGCGCGATCACAT (ssDNA) [Ref2]
Tau T231 peptide [2]
  binding result: no binding

B5: IT4 (ssDNA)
DNA: CAGCACCGTCAACTGAATGGGTTGGCCGGGCAGCGGGGGGTAGGCTTGGTGATGCGATGGAGATGT
[1]; label: 5'-FAM (flow)
  Kd: 68 nM
UCH-L1
  binding result: no binding
BSA
  binding result: no binding
Alpha casein
  binding result: no binding
Beta casein
  binding result: no binding

## CACCGTCAACTGAATGTTGTCGTCAGAGGTTATAACCTGAACTCGGTG (ssDNA) [IT6a]
[1]
  Kd: 28.2 nM

B6: IT3 (ssDNA)
DNA: CAGCACCGTCAACTGAATGGGGAGAGTGGTGGGGCGGGGGCCGGATCCGTGATGCGATGGAGATGT
[1]; label: 5'-FAM (flow)
  Kd: 17 nM
UCH-L1
  binding result: no binding
BSA
  binding result: no binding
Alpha casein
  binding result: no binding
Beta casein
  binding result: no binding

## CTTCTGCCCGCCTCCTTCC (ssDNA) [Ref3]
Tau T231 peptide [2]
  binding result: no binding

B7: IT2 (ssDNA)
DNA: CAGCACCGTCAACTGAATAAGGACTGCTTAGGATTGCGATGATTCAGGGTGATGCGATGGAGATGT
[1]; label: 5'-FAM (flow)
  Kd: 5.5 nM

## CTGAATAAGGACTGCTTAGGATTGCGATGATTCAG (ssDNA) [IT2a]
[1]; hairpin
  Kd: 19.5 nM
